Results as given in paper doi:10.1101/2023.09.18.557803, “Structure of the portal complex from Staphylococcus aureus pathogenicity island 1 transducing particles in situ and in solution” (bioRxiv, 2023).

Legend:
[1] = molecular target: bacteriophage 80α portal protein (gp42) in situ in SaPI1 virions (Staphylococcus aureus bacteriophage 80α); assay: cryo-EM structure; focused reconstruction with C12 symmetry of the portal complex in situ in purified full and empty SaPI1 virions (assembled in S. aureus), after signal subtraction of the capsid; 3.2 Å (full) and 3.5 Å (empty)
[2] = molecular target: bacteriophage 80α portal protein (gp42), expressed in E. coli with a C-terminal hexahistidine tag (Staphylococcus aureus bacteriophage 80α); assay: cryo-EM structure; portals expressed in E. coli, in solution (25 mM HEPES pH 7.4, 0.1 M NaCl); 2D classification and C13 reconstruction in RELION-3, 2.4 Å
[3] = molecular target: the molecule itself; assay: cryo-EM structure; icosahedral reconstruction of full and empty capsids of purified SaPI1 virions (assembled in S. aureus); 3.1 Å (full, used to model CP) and 3.2 Å (empty)

For “bacteriophage 80α portal protein (gp42) in situ in SaPI1 virions (natural protein)”, the stoichiometry N [1] was 12.

In the case of “bacteriophage 80α portal protein (gp42), expressed in E. coli with a C-terminal hexahistidine tag (natural protein)”, the stoichiometry N [2] is reported as 13.

B1: bacteriophage 80α capsid protein (gp47) in mature SaPI1 capsids (natural protein, Staphylococcus aureus bacteriophage 80α, UniProt A4ZFB3 15-324, looked up)
chain: ASNNVKPQVFNPDNVMMHEKKDGTLMNEFTTPILQEVMENSKIMQLGKYEPMEGTEKKFTFWADKPGAYWVGEGQKIETSKATWVNATMRAFKLGVILPVTKEFLNYTYSQFFEEMKPMIAEAFYKKFDEAGILNQGNNPFGKSIAQSIEKTNKVIKGDFTQDNIIDLEALLEDDELEANAFISKTQNRSLLRKIVDPETKERIYDRNSDSLDGLPVVNLKSSNLKRGELITGDFDKLIYGIPQLIEYKIDETAQLSTVKNEDGTPVNLFEQDMVALRATMHVALHIADDKAFAKLVPADKRTDSVPGEV
notes: capsid protein gp47 of Staphylococcus aureus bacteriophage 80α, cut product: the first 14 residues are removed by the Prp protease; domains printed as N-arm 15-67, E-loop 68-104, P-domain 105-167 and 248-307, A-domain 168-247 and 308-324; residues 16-313 modelled; 240 copies in the icosahedral T=4 capsid; in the real virion five subunits at one vertex are replaced by the portal; also called CP; …
In the case of B1, the “stoichiometry N” value [3] is reported as 240.
